Reference: paper PMC7197785 (PLoS Pathogens, 2020)

Legend:
[1] = molecular target: HisEhC2B121 (E. histolytica); test: ITC
MBPEhC2BHis = molecular target: T1, MBPEhC2BHis (E. histolytica, UniProt C4M344 1-208); test: ITC; settings: both partners purified
T1 construct: also called EhC2B full-length; not shown: MBP, N-terminal, kept; His-tag, C-terminal, kept
T1 sequence: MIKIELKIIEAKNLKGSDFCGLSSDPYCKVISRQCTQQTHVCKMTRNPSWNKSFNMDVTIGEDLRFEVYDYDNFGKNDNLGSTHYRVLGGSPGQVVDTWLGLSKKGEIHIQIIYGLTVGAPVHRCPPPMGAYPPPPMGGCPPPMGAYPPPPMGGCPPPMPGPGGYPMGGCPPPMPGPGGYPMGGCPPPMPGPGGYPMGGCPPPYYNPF

B1: GSTEhRab21 (enzyme)
chain: MENEFKVVLLGEGKVGKTSMILRYTQNFFTPEEGPRTTQASYVSKTLNIDKNDYIINIWDTAGQEKYQALTPIYYRDSQGAILVYDITEPRSFQRVQTEVDNIRDMLGDSCCIVIVGNKMDLVQQRKISKEEADKYAESVKAIHYLCSCATGDGISDVFEGLTKQMVDKRKSLGDDELFDRKKSTLVFQDDKNNTRQAKSDCC
notes: also called GppNHp-GSTEhRab21; GDP-GSTEhRab21; source: recombinant, purified
B1 showed a Ka [1] of 9.6e+06 M⁻¹, a dH [1] of -15.6 kcal/mol and a stoichiometry N [1] of 1. The Ka (MBPEhC2BHis) was 1.24e+07 M⁻¹, the dH (MBPEhC2BHis) was -9.23 kcal/mol and the “stoichiometry N” value (MBPEhC2BHis) was 1.
